In one data set the target is T1, PH1501 (Pyrococcus horikoshii, UniProt O59170).
T1 construct: full-length, pET11a (NdeI/BamHI), no tag described, E. coli BL21 (DE3), partially purified by heat treatment at 90°C; about 50 kDa on SDS-PAGE
T1 sequence (O59170 1-438): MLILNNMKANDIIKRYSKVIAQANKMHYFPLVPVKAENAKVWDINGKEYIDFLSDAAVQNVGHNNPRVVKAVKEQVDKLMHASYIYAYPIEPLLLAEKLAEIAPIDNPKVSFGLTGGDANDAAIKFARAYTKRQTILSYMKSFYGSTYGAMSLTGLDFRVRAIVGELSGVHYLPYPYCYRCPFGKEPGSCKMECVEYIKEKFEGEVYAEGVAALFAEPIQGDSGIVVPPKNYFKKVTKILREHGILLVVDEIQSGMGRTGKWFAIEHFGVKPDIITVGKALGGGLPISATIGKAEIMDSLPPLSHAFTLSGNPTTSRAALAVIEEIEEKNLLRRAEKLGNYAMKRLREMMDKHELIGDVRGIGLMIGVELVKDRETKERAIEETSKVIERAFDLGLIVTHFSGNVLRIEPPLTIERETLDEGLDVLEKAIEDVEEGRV
Briefly: UPLC detection of D-amino acid. The following applies: partially purified (heat-treated) enzyme; 100 mM HEPES pH 7.0, 10 mM L-amino acid, 0.04 mM PLP, 80°C, 60 min; slight peak. It counts as biochemical.

In data set [1] the target is T2, PH0782; Ala/Ser racemase (ASR) (Pyrococcus horikoshii, UniProt O58478).
T2 construct: full-length, pET11a (NdeI/BglII), no tag described, E. coli BL21 (DE3), purified; hexamer about 300 kDa; fold type I PLP enzyme
The experiment in a line: apo-enzyme reactivation, racemase activity. The following applies: apo-enzyme prepared at 80°C for 18 h in assay mixture with L-Ala; covalent (Schiff base, K291 suggested). It is filed as biochemical.

Data set [2] concerns the molecule itself. The experiment in a line: SEC; gel filtration on HiLoad 26/60 Superdex 200 with molecular mass standards (thyroglobulin, gamma-globulin, ovalbumin, myoglobin); native mass about 300 kDa against a subunit of 50.5 kDa (calculated).
Substrate in data set [3]: C[C@H](N)C(=O)O
The experiment in a line: purified protein. The following applies: 100 mM HEPES pH 7.0, 0.04 mM PLP, 80°C, racemization to D-Ala, apparent.

Substrate in data set [4]: C[C@@H](N)C(=O)O
The experiment in a line: purified protein. The conditions noted are these: 100 mM HEPES pH 7.0, 0.04 mM PLP, 80°C, racemization to L-Ala, apparent.

Substrate in data set [5]: N[C@H](CO)C(=O)O
The experiment in a line: purified protein. The conditions noted are these: 100 mM HEPES pH 7.0, 0.04 mM PLP, 80°C, racemization to L-Ser, apparent.

Substrate in data set [6]: N[C@@H](CO)C(=O)O
The experiment in a line: purified protein. The conditions noted are these: 100 mM HEPES pH 7.0, 0.04 mM PLP, 80°C, racemization to D-Ser, apparent.

One may read the stoichiometry N as a count of units in the complex or per binding partner. The term Km denotes the substrate concentration at which the rate is half of its maximum. What is called Vmax is the rate approached at saturating substrate. One may read the kcat/Km as the turnover number divided by the Michaelis constant.

Turning to `CSCC[C@H](N)C(=O)O` [Met], at PH1501, the “UPLC detection of D-amino acid” value was “Slight peaks for the D-forms of Met, Phe, and Leu were detected”.

For `N[C@@H](Cc1ccccc1)C(=O)O` [Phe], the “UPLC detection of D-amino acid” value on PH1501 was “Slight peaks for the D-forms of Met, Phe, and Leu were detected”.

Regarding `Cc1ncc(COP(=O)(O)O)c(C=O)c1O` [pyridoxal 5′-phosphate], the “apo-enzyme reactivation, racemase activity” value in data set [1] was “apo-enzyme exhibited no activity in the absence of PLP and recovered its activity by addition”.

B1: Ala/Ser racemase (ASR), the protein encoded by PH0782, from Pyrococcus horikoshii OT-3 (enzyme, UniProt O58478 1-474, looked up)
chain: MPFLPFSYYPFSLEVILMEYPKIVVKPPGPRAKELIEREKKVLSTGIGVKLFPLVPKRGFGPFIEDVDGNVFIDFLAGAAAASTGYAHPKLVKAVKEQVELIQHSMIGYTHSERAIRVAEKLVEISPIENSKVIFGLSGSDAVDMAIKVSKFSTRRPWILAFIGAYHGQTLGATSVASFQVSQKRGYSPLMPNVFWIPYPNPFRNIWGINGYEEPDELINRVLDYLEYYVFSHVVPPDEVAALFAEPIQGDAGIVVPPENFFKELKKLLEEYGILLVMDEVQTGIGRTGKWFASEWFNVKPDMIIFGKGVASGMGLSGVIGRKEIMDITSGSALLTPAANPVISAAAEATLEIIEEENLLKNALEVGEFIMGRLKEIKERFEIIGDVRGKGLMIGVEIVKENGRPDPEMTGKICWRAFELGLILPSYGMFGNVIRITPPLVLTKEVAEKALEIIERAIKDTLTGKVERKVVTWH
notes: Ala/Ser racemase encoded by ORF PH0782 of Pyrococcus horikoshii OT-3 (annotated as a putative GABA aminotransferase); amplified from genomic DNA with primers from the initiation codon to the termination codon; calculated subunit mass 50.5 kDa; PLP-dependent enzyme; also called BAR homolog; source: E. coli BL21 (DE3), pET11a/PH0782, purified (heat treatment, butyl-Toyopearl, DEAE-cellurofine)
As for B1, the “stoichiometry N” value in data set [2] is 6.

B2: PH0782; Ala/Ser racemase (ASR) (Pyrococcus horikoshii OT3) (protein)
chain: MEYPKIVVKPPGPRAKELIEREKKVLSTGIGVKLFPLVPKRGFGPFIEDVDGNVFIDFLAGAAAASTGYAHPKLVKAVKEQVELIQHSMIGYTHSERAIRVAEKLVEISPIENSKVIFGLSGSDAVDMAIKVSKFSTRRPWILAFIGAYHGQTLGATSVASFQVSQKRGYSPLMPNVFWIPYPNPFRNIWGINGYEEPDELINRVLDYLEYYVFSHVVPPDEVAALFAEPIQGDAGIVVPPENFFKELKKLLEEYGILLVMDEVQTGIGRTGKWFASEWFNVKPDMIIFGKGVASGMGLSGVIGRKEIMDITSGSALLTPAANPVISAAAEATLEIIEEENLLKNALEVGEFIMGRLKEIKERFEIIGDVRGKGLMIGVEIVKENGRPDPEMTGKICWRAFELGLILPSYGMFGNVIRITPPLVLTKEVAEKALEIIERAIKDTLTGKVERKVVTWH
For the molecule B2, the Km came to 3.3 ± 0.22 mM in the data set “purified protein [3]”, 5.5 ± 0.59 mM in the data set “purified protein [4]”, 5.9 ± 0.40 mM in “purified protein [5]” and 4.5 ± 0.32 mM in “purified protein [6]”. Also, the Vmax in “purified protein [3]” amounted to 28.2 µmol/min/mg; in “purified protein [4]”, 49.5 µmol/min/mg; in “purified protein [5]” it was 41.2 µmol/min/mg; in the data set “purified protein [6]” it was 31.4 µmol/min/mg. For the same molecule, the kcat/Km came to 7190 M⁻¹ s⁻¹ in the data set “purified protein [3]”, 7580 M⁻¹ s⁻¹ in “purified protein [4]”, 5880 M⁻¹ s⁻¹ in “purified protein [5]” and 5870 M⁻¹ s⁻¹ in “purified protein [6]”.

(Values after PMC6047364, “A Novel PLP-Dependent Alanine/Serine Racemase From the Hyperthermophilic Archaeon Pyrococcus horikoshii OT-3” (Frontiers in Microbiology, 2018).)
